Source: patent publication CN111303285A (BAILISIKANG BIOLOGICAL PHARMACEUTICAL HANGZHOU CO LTD, dated 2020)

Legend:
4-1BB-rFc融合蛋白 = target: T1, 4-1BB-rFc融合蛋白 (UniProt Q07011 24-186); experiment: ELISA, fusion protein coated on the plate
T1 construct: extracellular domain; also called 4-1BB融合蛋白; not shown: rFc part

4-1BB-His融合蛋白 = target: T2, 4-1BB-His融合蛋白 (UniProt Q07011 24-186); experiment: ELISA, fusion protein coated on the plate
T2 construct: extracellular domain; also called 4-1BB融合蛋白; not shown: His tag

[1] = target: T3, OX40 expressed on cells (OX40-293F细胞; 19B3 HEK293 NF-κB报告细胞系) (UniProt P43489 29-277); experiment: cell-based or functional assay
T3 sequence (looked up): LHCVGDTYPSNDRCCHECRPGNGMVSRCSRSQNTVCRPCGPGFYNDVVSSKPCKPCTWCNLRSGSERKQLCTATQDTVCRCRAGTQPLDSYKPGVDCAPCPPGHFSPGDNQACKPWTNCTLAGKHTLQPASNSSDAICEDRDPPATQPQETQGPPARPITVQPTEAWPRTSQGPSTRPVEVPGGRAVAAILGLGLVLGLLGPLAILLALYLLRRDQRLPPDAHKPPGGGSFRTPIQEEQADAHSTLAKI

binding result (4-1BB-rFc融合蛋白): no binding
binding result (4-1BB-His融合蛋白): no binding
NF-κB luciferase reporter (RLU) in 19B3 cells expressing OX40; 半数有效浓度(EC50) [1]: 803 ng/mL
B1: 本发明抗OX40抗体 (murine monoclonal anti-OX40 antibody of the invention) (antibody, V domains shown)
VH: EVQLQQSGAELVKPGASVKLSCKASGYTFTNYWIHWVKQRPGQGLEWIGEINPSNGRTNSNEKFKNKATLTVDKSSSTAYMQLSSLTSEDSAVYYCAEAVPYYFVYWGQGTTLTVSS
VL: DIVMTQAASSLSASLGDRVTISCRASQDINNYLNWYQQKPDGTVKLLIYFTSGLRSGVPSRFSGSGSGTDYSLTISNLEQEDIATYFCQQGNTLPLTFGAGTKLELN
notes: also called 本发明OX40抗体; 靶向OX40的抗体
